Results taken from article PMC5077151, “Wild-Type U2AF1 Antagonizes the Splicing Program Characteristic of U2AF1-Mutant Tumors and Is Required for Cell Survival”.

B1: FXR1 proximal 3' splice site (ssRNA)
RNA: UUUUUCUCAUCUUUAACAGUCACAGUUGCAGAU
B2: ATR distal 3' splice site (ssRNA)
RNA: UUGGUUUUAUGUUUCUUCUUUUUAGGCCAAGAC
B3: MED15 proximal 3' splice site (ssRNA)
RNA: GUCUGUUGUCCCUCUGUCCUCAAAGAUGAUCAC
B4: ZFAND1 distal 3' splice site (ssRNA)
RNA: CAUUUCCUCCUUUUUGCAUUUUCAGGUGACUGU
B5: FMR1 proximal 3' splice site (ssRNA)
RNA: GUAUAUAACUUUUAACUCUCGAUAGGAACUAAUUC
B6: ZFAND1 proximal 3' splice site (ssRNA)
RNA: UAAACACUUGCUAUUAUUAUUUAAGCCUUGAAC
B7: CEP164 distal 3' splice site (ssRNA)
RNA: CACUUGUCAUCAUUUUUGUUUCUAGAGUGUCCACA
B8: FXR1 distal 3' splice site (ssRNA)
RNA: UGAAAAAGUUGUCUCCCUUUGGCAGGCAAAAGA
B9: MED15 distal 3' splice site (ssRNA)
RNA: GCCGGCUGAGCCCCUCCACUUCCAGGUCAGCCA
B10: FMR1 distal 3' splice site (ssRNA)
RNA: GAAGCAUCAAAUGCUUCUGAAACAGAAUCUGACCA
B11: ATR proximal 3' splice site (ssRNA)
RNA: UCUUCCAUAUCCACCUUUUCCUAAGAUGGCAAG
B12: CEP164 proximal 3' splice site (ssRNA)
RNA: UUGACUGUCCUUCUCUAUUUUGAAGCCUUCACAGG

Biological target: U2AF1 WT;U2AF2;SF1 (Homo sapiens?;Homo sapiens?;Homo …, UniProt Q01081;P26368-2;Q15637 1-193;85-471;1-255, ||)
Sequence (Q01081 1-193, chain 1 of 3): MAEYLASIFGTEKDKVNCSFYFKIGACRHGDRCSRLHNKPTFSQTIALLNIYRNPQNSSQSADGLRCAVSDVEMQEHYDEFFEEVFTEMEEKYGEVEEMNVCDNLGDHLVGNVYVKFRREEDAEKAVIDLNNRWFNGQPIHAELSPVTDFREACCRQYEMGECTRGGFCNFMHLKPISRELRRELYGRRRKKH
Sequence (P26368 other isoform, or with tags, fused parts or gaps ||, chain 2 of 3): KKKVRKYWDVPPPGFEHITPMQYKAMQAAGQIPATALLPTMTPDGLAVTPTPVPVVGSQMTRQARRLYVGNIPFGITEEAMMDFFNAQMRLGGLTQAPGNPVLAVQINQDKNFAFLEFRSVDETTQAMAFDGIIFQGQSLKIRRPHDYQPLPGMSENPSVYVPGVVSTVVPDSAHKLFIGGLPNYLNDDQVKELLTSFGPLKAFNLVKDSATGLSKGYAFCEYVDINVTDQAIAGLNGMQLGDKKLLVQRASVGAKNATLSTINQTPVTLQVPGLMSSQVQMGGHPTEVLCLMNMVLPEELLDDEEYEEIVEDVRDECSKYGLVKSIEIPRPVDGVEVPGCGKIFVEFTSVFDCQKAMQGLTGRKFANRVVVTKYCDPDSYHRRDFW
Sequence (Q15637 1-255, chain 3 of 3): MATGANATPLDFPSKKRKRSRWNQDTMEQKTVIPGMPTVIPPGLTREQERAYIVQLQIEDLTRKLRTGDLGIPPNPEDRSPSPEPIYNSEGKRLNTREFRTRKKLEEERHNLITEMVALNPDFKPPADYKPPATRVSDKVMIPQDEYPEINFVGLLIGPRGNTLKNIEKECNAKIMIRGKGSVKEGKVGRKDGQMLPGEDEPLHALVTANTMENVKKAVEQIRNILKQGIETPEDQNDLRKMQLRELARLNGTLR
Test: fluorescence anisotropy; 20 nM 5'-fluorescein RNA, size-exclusion chromatography buffer (composition, pH and temperature not in the material), 384-well plate, 3 replicates
Details: protein: recombinant;recombinant;recombinant; tags: ;;; copies: 1;1;1; label: 5' fluorescein

Going from B1 to B2, the Kd falls from 71 ± 6 nM to 7 ± 0.5 nM (10-fold).

Going from B3 to B4, the Kd falls from 208 ± 35 nM to 53 ± 4 nM (3.9-fold). The second binds more tightly here.

Compared with B5, B6 is 7.8-fold lower in Kd: 188 ± 27 nM for the first, 24 ± 1 nM for the second. The second binds more tightly here.

First: B7
Second: B8
The Kd of the first is 12-fold higher: 497 ± 46 nM for the first, 41 ± 6 nM for the second. The second binds more tightly here.

First: B9
Second: B10
The Kd of the first is 2.7-fold lower: 157 ± 25 nM for the first, 427 ± 20 nM for the second. The first binds more tightly here.

Going from B11 to B12, the Kd falls from 188 ± 52 nM to 12 ± 1 nM (16-fold). The second binds more tightly here.

Biological target: U2AF1 S34F;U2AF2;SF1 (Homo sapiens?;Homo sapiens?;Homo …, UniProt Q01081;P26368-2;Q15637 1-193;85-471;1-255, S34F||)
Sequence (Q01081 1-193 S34F, chain 1 of 3): as the sequence (Q01081 1-193, chain 1 of 3) above, with S34F counted along it
Sequence (P26368 other isoform, or with tags, fused parts or gaps S34F|| | S34F S34F, chain 2 of 3): as the sequence (P26368 other isoform, or with tags, fused parts or gaps ||, chain 2 of 3) above
Sequence (Q15637 1-255, chain 3 of 3): as the sequence (Q15637 1-255, chain 3 of 3) above
Test: as above
Details: protein: recombinant;recombinant;recombinant; tags: ;;; copies: 1;1;1; label: 5' fluorescein

B1 and B2 are within error of each other in Kd: 38 ± 6 nM for the first, 49 ± 6 nM for the second.

First: B3
Second: B4
The Kd of the first is 11-fold higher: 483 ± 106 nM for the first, 43 ± 7 nM for the second.

First: B5
Second: B6
The Kd of the first is 56-fold higher: 281 ± 44 nM for the first, 5 ± 1 nM for the second. The second binds more tightly here.

Going from B7 to B8, the Kd falls from 447 ± 63 nM to 46 ± 11 nM (9.7-fold).

First: B9
Second: B10
The Kd of the first is 14-fold lower: 32 ± 8 nM for the first, 444 ± 58 nM for the second.

For B12, the Kd was 49 ± 9 nM.
